Publication PMC12199161, “Structural and functional studies of the main replication protein NS1 of human parvovirus B19” (Nucleic Acids Research, 2025)
Several values for one entry are separate records, joined by “and”; a condition that tells them apart may be missing. Equal values may be shown once.

Assays:
[1] = target: T1, NS1_2-570 (Human parvovirus B19 isolate AU, UniProt P07298); assay: cryo-EM structure of complex; type: binding; settings: Mg2+ (5 mM MgCl2 in DNA complexes); Walker A site, one AMPPNP per protomer; DNA-free dodecamer; also ternary complexes with ssDNA (3.3 Å, hexamer) and dsDNA (3.43 Å, dodecamer)
T1 construct: gene NS1; residues 2-570 of 671 (Nuc, OD, SF3 HD, TAD; ZnD missing); N-terminal His-MBP tag, TEV-treated; codon-optimized cDNA; E. coli Rosetta (DE3); monomer 62 kDa; ~830 kDa oligomer by gel filtration
T1 sequence (P07298 2-570): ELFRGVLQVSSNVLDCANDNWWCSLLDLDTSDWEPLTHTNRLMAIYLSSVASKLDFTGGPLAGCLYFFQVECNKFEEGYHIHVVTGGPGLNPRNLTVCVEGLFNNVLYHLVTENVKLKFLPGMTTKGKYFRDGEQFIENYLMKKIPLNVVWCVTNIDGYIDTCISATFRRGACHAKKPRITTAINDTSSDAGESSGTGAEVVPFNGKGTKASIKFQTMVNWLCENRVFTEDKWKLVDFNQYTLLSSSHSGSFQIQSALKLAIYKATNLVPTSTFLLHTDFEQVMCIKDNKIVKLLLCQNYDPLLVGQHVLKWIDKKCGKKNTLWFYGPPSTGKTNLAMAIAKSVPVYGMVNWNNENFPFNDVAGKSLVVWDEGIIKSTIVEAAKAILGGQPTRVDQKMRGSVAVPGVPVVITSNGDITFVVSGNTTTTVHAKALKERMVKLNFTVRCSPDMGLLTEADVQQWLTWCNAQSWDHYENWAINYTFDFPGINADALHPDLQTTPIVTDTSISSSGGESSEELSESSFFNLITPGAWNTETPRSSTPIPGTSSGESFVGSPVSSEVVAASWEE

[2] = target: the molecule itself; assay: cryo-EM structure
[3] = target: the molecule itself; assay: SEC; NS1_200-501 (WT and 3G mutant) on Superdex 200 Increase 10/30 GL
[4] = target: NS1_2-570 (Human parvovirus B19 (B19V), UniProt I7BP20 2-570); assay: EMSA; no ATP or Mg2+ listed; settings: protein: recombinant; tags: N-terminal His6-MBP, TEV protease treated; chain copies: 12; label: 5'-FAM on top strand; blunt

## Nc1ncnc2c1ncn2[C@@H]1O[C@H](COP(=O)(O)OP(=O)(O)NP(=O)(O)O)[C@@H](O)[C@H]1O [AMPPNP]
[1]
  AMPPNP binding site: one AMPPNP molecule is captured at the characteristic Walker A region of each NS1 protomer

B1: B19V NS1_2-570 protein (domain or fragment)
chain: ELFRGVLQVSSNVLDCANDNWWCSLLDLDTSDWEPLTHTNRLMAIYLSSVASKLDFTGGPLAGCLYFFQVECNKFEEGYHIHVVIGGPGLNPRNLTVCVEGLFNNVLYHLVTENVKLKFLPGMTTKGKYFRDGEQFIENYLMKKIPLNVVWCVTNIDGYIDTCISATFRRGACHAKKPRITTAINDTSSDAGESSGTGAEVVPFNGKGTKASIKFQTMVNWLCENRVFTEDKWKLVDFNQYTLLSSSHSGSFQIQSALKLAIFKATNLVPTSTFLLHTDFEQVMCIKDNKIVKLLLCQNYDPLLVGQHVLKWIDKKCGKKNTLWFYGPPSTGKTNLAMAIAKSVPVYGMVNWNNENFPFNDVAGKSLVVWDEGIIKSTIVEAAKAILGGQPTRVDQKMRGSVAVPGVPVVITSNGDITFVVSGNTTTTVHAKALKERMVKLNFTVRCSPDMGLLTEADVQQWLTWCNAQSWDHYENWAINYTFDFPGINADALHPDLQTTPIVTDTSISSSGGESSEELSESSFFNLITPGAWNTETPRSSTPIPGTSSGESFVGSSVSSEVVAASWEE
notes: source: E. coli Rosetta (DE3), purified (HisTrap, heparin, TEV protease, HisTrap, Superose 6 gel filtration)
[2]
  stoichiometry N: 12 and 6

B2: NS1_200-501 protein (domain or fragment)
chain: AEVVPFNGKGTKASIKFQTMVNWLCENRVFTEDKWKLVDFNQYTLLSSSHSGSFQIQSALKLAIFKATNLVPTSTFLLHTDFEQVMCIKDNKIVKLLLCQNYDPLLVGQHVLKWIDKKCGKKNTLWFYGPPSTGKTNLAMAIAKSVPVYGMVNWNNENFPFNDVAGKSLVVWDEGIIKSTIVEAAKAILGGQPTRVDQKMRGSVAVPGVPVVITSNGDITFVVSGNTTTTVHAKALKERMVKLNFTVRCSPDMGLLTEADVQQWLTWCNAQSWDHYENWAINYTFDFPGINADALHPDLQTT
notes: source: E. coli Rosetta (DE3), purified
[3]
  stoichiometry N: 12

B3: duplex DNA-1 (dsDNA)
DNA 1: AAGAAGACACCAAATCAGATGCCGCCGGTCGCCGCCGGTAGGCGGGAC
DNA 2: GTCCCGCCTACCGGCGGCGACCGGCGGCATCTGATTTGGTGTCTTCTT
[4]
  binding result: binds
